Values of other authors, collected in patent US20030003565A1, “Functional lentiviral vector from an MLV-based backbone” (priority 2000, published 2003).

Settings: patients with septic shock, constant infusion for three days; 44% with placebo infusions

B1: IL-1R: recombinant IL-1R given as constant infusion to patients with septic shock (protein, UniProt P14778 18-336, looked up)
extracellular domain: LEADKCKEREEKIILVSSANEIDVRPCPLNPNEHKGTITWYKDDSKTPVSTEQASRIHQHKEKLWFVPAKVEDSGHYYCVVRNSSYCLRIKISAKFVENEPNLCYNAQAIFKQKLPVAGDGGLVCPYMEFFKNENNELPKLQWYKDCKPLLLDNIHFSGVKDRLIVMNVAEKHRGNYTCHASYTYLGKQYPITRVIEFITLEENKPTRPVIVSPANETMEVDLGSQIQLICNVTGQLSDIAYWKWNGSVIDEDDPVLGEDYYSVENPANKRRSTLITVLNISEIESRFYKHPFTCFAKNTHGIDAAYIQLIYPVTNFQK
modifications: extracellular domain
28 day mortality: 16%
